Results published in IntAct's records for PubMed 22916205.

B1: "Na(+)/H(+) exchange regulatory cofactor-like protein nrfl-1" (Caenorhabditis elegans), G5EDM4-1 (parent)
chain: MVHIPSDVTPPRLCVVEKLNGENEYGYNLHAEKGRGQFVGTVDPDSPAERGGLITGDRIFAVNGHSIIGENHKKVVERIKANPNRCEMLVISEEGAKWYNENNVQITLDLPNIERVSPMSKETPVFVPPPPPPTDAMPYLPRLAELNKGTPDQEFGFNLHAERGRGHFIGTVDAGGIGEKAGLEAGQRIVGVNGQLIYPTTGHKEVVALIKKDTMKTTLLVASEDVDKYHKDHNIAYSWDNVERVDTRPVINVETHHHHEEVSVPKSNGYDVPPLNPHSIQVNEEREISKMTTTTRTETITNSNSAYQYKESSTAYDAYATPPVDSNDLMDEVFGRVNLPGVTMSSHTEVLPPTDDISSVSSLSSHRESAVDVPVSHQYVPSYATESHQKHEQHSQTHHHHHQHQQPSPLSNGSSHGYAASSTSGYDDDDIYHLSAREARERLRMKNRKHHLHEMSLNEKYQLVSNM
partner: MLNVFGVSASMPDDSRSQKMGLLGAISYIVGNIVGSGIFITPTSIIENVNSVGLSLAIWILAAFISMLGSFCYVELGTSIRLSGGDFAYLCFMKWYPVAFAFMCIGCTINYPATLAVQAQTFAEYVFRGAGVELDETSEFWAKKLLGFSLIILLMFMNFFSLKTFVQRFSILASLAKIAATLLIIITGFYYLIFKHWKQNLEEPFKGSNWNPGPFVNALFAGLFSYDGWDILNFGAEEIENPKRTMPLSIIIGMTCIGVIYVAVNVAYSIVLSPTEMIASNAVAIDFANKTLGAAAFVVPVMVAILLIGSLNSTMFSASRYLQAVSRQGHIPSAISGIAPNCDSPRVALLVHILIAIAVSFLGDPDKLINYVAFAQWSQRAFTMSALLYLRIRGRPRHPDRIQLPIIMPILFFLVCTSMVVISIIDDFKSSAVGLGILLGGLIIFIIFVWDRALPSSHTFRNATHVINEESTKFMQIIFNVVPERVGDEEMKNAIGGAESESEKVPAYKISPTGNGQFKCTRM

Variants of: B1
Settings: with aat6_caeel aat-6, Q22397

Row | effect of a mutation on the interaction | Variant
1 | disrupting interaction strength | G26A;Y27A;E154A;F155A
2 | decreasing interaction strength | E154A;F155A
3 | with no effect | G26A;Y27A
